The test system of the series is Escherichia coli TOP10. Kind of series: shrunken log2 fold change of peptide-encoding DNA abundance (4.5 h post-induction vs induction); higher = less antimicrobial activity (less host growth inhibition). The settings on record: time post-induction: 4.5 h; library: site-saturation at positions 5, 18, 19, 20.
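Further: peptides expressed intracellularly from a pBAD plasmid library in pooled LB shake-flask culture, induced with 0.3% L-arabinose, DNA abundance read by NGS, three biological replicates, DESeq2 with apeglm shrinkage.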

Consider RRIRARPPRLPRPRPRPFPVPRP, for which the “shrunken log2 fold change” value was -0.0583.
On to RRIRLRPPRLPRPRPRPIPMPRP, for which the “shrunken log2 fold change” value is 0.0494.
RRIRHRPPRLPRPRPRPREQPRP: the “shrunken log2 fold change” value amounted to 0.628.
Take RRIRRRPPRLPRPRPRPQQHPRP: the “shrunken log2 fold change” value is -0.0327.
The value for RRIRIRPPRLPRPRPRPTFLPRP was -0.679.
Regarding RRIRYRPPRLPRPRPRPNANPRP, the “shrunken log2 fold change” value was -2.
Take RRIRERPPRLPRPRPRPPNPPRP: the “shrunken log2 fold change” value is 0.216.
The value for RRIRKRPPRLPRPRPRPANDPRP was 0.0931.
The value for RRIRMRPPRLPRPRPRPNWWPRP was -0.0136.
In the case of RRIRERPPRLPRPRPRPAGLPRP, the “shrunken log2 fold change” value was -0.0519.
The value for RRIRERPPRLPRPRPRPCRHPRP was -0.00171.
The value for RRIRFRPPRLPRPRPRPYRGPRP was -0.384.
Turning to RRIRRRPPRLPRPRPRPGLDPRP, the “shrunken log2 fold change” value turned out to be 0.161.
The value for RRIRTRPPRLPRPRPRPIPNPRP was 0.0695.
The value for RRIRIRPPRLPRPRPRPIKVPRP was -0.398; that for RRIRKRPPRLPRPRPRPQGMPRP was -0.027; that for RRIRYRPPRLPRPRPRPFTWPRP was -1.51.
The value for RRIRMRPPRLPRPRPRPGQYPRP was -0.00987.
Consider RRIRPRPPRLPRPRPRPNEIPRP, for which the “shrunken log2 fold change” value is -0.139.
Consider RRIRVRPPRLPRPRPRPKRNPRP, for which the “shrunken log2 fold change” value stood at 0.166.
The value for RRIRHRPPRLPRPRPRPNIPPRP was -0.234.
RRIRQRPPRLPRPRPRPGYRPRP: the “shrunken log2 fold change” value is -0.354.
The value for RRIRRRPPRLPRPRPRPCGYPRP was 0.0658; that for RRIRFRPPRLPRPRPRPVIAPRP was -0.186; that for RRIRHRPPRLPRPRPRPPVFPRP was 0.612.
The value for RRIRRRPPRLPRPRPRPMMIPRP was -0.185; that for RRIRTRPPRLPRPRPRPTNSPRP was -0.334.
The value for RRIRRRPPRLPRPRPRPQPHPRP was 0.396; that for RRIRFRPPRLPRPRPRPAFIPRP was -0.274; that for RRIRYRPPRLPRPRPRPTNEPRP was -0.586.
RRIRCRPPRLPRPRPRPYMMPRP: the “shrunken log2 fold change” value is -0.293.
The value for RRIRDRPPRLPRPRPRPGCLPRP was 0.589; that for RRIRFRPPRLPRPRPRPMSPPRP was -0.0304; that for RRIRTRPPRLPRPRPRPHFIPRP was -0.321.
Turning to RRIRFRPPRLPRPRPRPCNRPRP, the “shrunken log2 fold change” value was -0.111.
The value for RRIRHRPPRLPRPRPRPYSNPRP was -0.392.
The value for RRIRTRPPRLPRPRPRPCEEPRP was 0.0871; that for RRIRCRPPRLPRPRPRPSPYPRP was -0.302; that for RRIRQRPPRLPRPRPRPFRDPRP was -0.117.
As to RRIRVRPPRLPRPRPRPYDMPRP, the “shrunken log2 fold change” value is -0.382.
RRIRARPPRLPRPRPRPDAWPRP: the “shrunken log2 fold change” value is 1.05.
The value for RRIRNRPPRLPRPRPRPKACPRP was -0.00921; that for RRIRSRPPRLPRPRPRPSHSPRP was -0.706.
The value for RRIRVRPPRLPRPRPRPMCAPRP was 0.137.
For RRIRGRPPRLPRPRPRPKSDPRP, the “shrunken log2 fold change” value amounted to 0.584.
The value for RRIRRRPPRLPRPRPRPRHTPRP was 0.268.
The value for RRIRERPPRLPRPRPRPIPYPRP was -0.00829.
The value for RRIRMRPPRLPRPRPRPAHPPRP was 0.296; that for RRIRCRPPRLPRPRPRPHNGPRP was -1.03; that for RRIRGRPPRLPRPRPRPKYNPRP was 0.02.
For the sequence RRIRGRPPRLPRPRPRPWIFPRP, the “shrunken log2 fold change” value amounted to 0.224.
Turning to RRIRHRPPRLPRPRPRPQCTPRP, the “shrunken log2 fold change” value was -0.124.
In the case of RRIRIRPPRLPRPRPRPLCGPRP, the “shrunken log2 fold change” value is -0.319.
Take RRIRKRPPRLPRPRPRPRTLPRP: the “shrunken log2 fold change” value turned out to be 0.454.
The value for RRIRKRPPRLPRPRPRPCKEPRP was -0.0743; that for RRIRNRPPRLPRPRPRPWHHPRP was -0.209.
The value for RRIRNRPPRLPRPRPRPWNHPRP was -0.612; that for RRIRWRPPRLPRPRPRPTDSPRP was -0.195; that for RRIRARPPRLPRPRPRPVNVPRP was -0.169.
The value for RRIRYRPPRLPRPRPRPYAKPRP was -1.76; that for RRIRTRPPRLPRPRPRPYQRPRP was -0.0311; that for RRIRNRPPRLPRPRPRPCKLPRP was -0.362.
With RRIRYRPPRLPRPRPRPQTYPRP, the “shrunken log2 fold change” value is -0.755.
The value for RRIRNRPPRLPRPRPRPCGIPRP was -0.138; that for RRIRQRPPRLPRPRPRPSPCPRP was -0.0648.
For the sequence RRIRPRPPRLPRPRPRPRHRPRP, the “shrunken log2 fold change” value came out at 0.177.
Take RRIRLRPPRLPRPRPRPRYAPRP: the “shrunken log2 fold change” value was found to be 0.00198.
Consider RRIRCRPPRLPRPRPRPINFPRP, for which the “shrunken log2 fold change” value is -0.235.
The value for RRIRPRPPRLPRPRPRPPYIPRP was -0.251; that for RRIRRRPPRLPRPRPRPVTRPRP was 0.169.
With RRIRYRPPRLPRPRPRPAKQPRP, the “shrunken log2 fold change” value was -0.168.
In the case of RRIRLRPPRLPRPRPRPFVYPRP, the “shrunken log2 fold change” value was -0.476.
The value for RRIRSRPPRLPRPRPRPASNPRP was -0.101; that for RRIRNRPPRLPRPRPRPVKRPRP was 0.0962; that for RRIRNRPPRLPRPRPRPNYWPRP was -0.694.
The value for RRIRDRPPRLPRPRPRPDIHPRP was -0.0156; that for RRIRWRPPRLPRPRPRPKRWPRP was 0.441.
RRIRARPPRLPRPRPRPEHFPRP: the “shrunken log2 fold change” value was 0.126.
The value for RRIRSRPPRLPRPRPRPAMSPRP was -0.0932; that for RRIRARPPRLPRPRPRPTSAPRP was 0.684; that for RRIRARPPRLPRPRPRPLNCPRP was -0.08.
On to RRIRVRPPRLPRPRPRPACVPRP, for which the “shrunken log2 fold change” value was -0.0412.
The value for RRIRWRPPRLPRPRPRPQCIPRP was -0.0652; that for RRIRARPPRLPRPRPRPAHHPRP was 0.123.
The value for RRIRFRPPRLPRPRPRPGWDPRP was 0.0298.
For RRIRYRPPRLPRPRPRPMPIPRP, the “shrunken log2 fold change” value is -0.16.
The value for RRIRCRPPRLPRPRPRPPRQPRP was 0.589; that for RRIRQRPPRLPRPRPRPLKYPRP was -0.0559; that for RRIRDRPPRLPRPRPRPESWPRP was 1.58.
In the case of RRIRMRPPRLPRPRPRPVLTPRP, the “shrunken log2 fold change” value came to 0.27.
The value for RRIRPRPPRLPRPRPRPCKKPRP was -0.0659.

The values above are taken from the supplement of paper PMC9112550, “Optimization of the antimicrobial peptide Bac7 by deep mutational scanning” (BMC Biology, 2022).
